Laboratory results from US20050070692A1 (published 2005).
Positions count from the first letter of the chain named. Names and notes keep the numbering of the source.

Experiments:
human IL-1β [1] = molecular target: T1, human IL-1β (human, UniProt P01584 117-269); experiment: competition ELISA on coated human IL-1β against biotinylated Mu007, Exp. C
T1 construct: mature; also called mature human IL-1β; Interleukin-1β
Procedure: (§1) Wells of 96-well ELISA plates (Nunc-lmmuno plate, Cat # 439454, NalgeNunc) were coated with 100 μL of 0.5. μg/mL of human IL-1β in 0.2M sodium carbonate-bicarbonate buffer (pH 9.4) overnight at 4° C., washed with Wash Buffer, blocked with Superblock blocking buffer for 30 min at 37° C., and washed again with Wash Buffer. A mixture of biotinylated Mu007 (0.16 μg/mL final concentration) and competitor antibody (Mu007, Hu007, or Hu007 analogs starting at 100 μg/mL final concentration and serial 3-fold dilutions) in ELISA Buffer were added in triplicate in a final volume of 100 μL per well. As a no-competitor control, 100 μL of 0.16 μg/mL biotinylated Mu007 was used. As a background control, 100 gLL of ELISA Buffer was used. ELISA plates were incubated at 37° C. for 2 hr. After washing the wells with Washing Buffer, 100 μL of 1 μg/mL HRP-conjugated streptavidin (Jackson ImmunoResearch) was added to each well. ELISA plates were incubated at room temperature for 30 min and washed with Washing Buffer. For color development, 100 μL/well of ABTS substrate was added. Color development was stopped by adding 100 μL/well of 2% oxalic acid. Absorbance was read at 415 nm.
(§2) Mu007, Hu007 and Hu007 analogs competed with biotinylated Mu007 in a concentration-dependent manner. The IC₅₀ values of Mu007 and Hu007 in three independent ELISA competition experiments, obtained using the computer software Prism (GraphPad Software Inc., San Diego, Calif.) are shown in Table 1. The relative binding of Hu007 was on average 89% of Mu007.

human IL-1β [2] = molecular target: T1, human IL-1β; experiment: competition ELISA on coated human IL-1β against biotinylated Mu007, Exp. A
Procedure: as §1, §2

human IL-1β [3] = molecular target: T1, human IL-1β; experiment: competition ELISA on coated human IL-1β against biotinylated Mu007, Exp. B
Procedure: as §1, §2

human IL-1β [4] = molecular target: T1, human IL-1β; experiment: cell-based or functional assay
human IL-1β [5] = molecular target: T1, human IL-1β; experiment: competition ELISA on coated human IL-1β against biotinylated Mu007, average of three experiments
Procedure: as §1
Mu007, Hu007 and Hu007 analogs competed with biotinylated Mu007 in a concentration-dependent manner. […]

cynomolgus monkey IL-1β = molecular target: T2, cynomolgus monkey IL-1β (cynomolgus monkey, UniProt P79182 117-268); experiment: BIAcore, antibody captured on anti-IgG CM5 chip, IL-1β flowed
T2 construct: also called Cynomolgus IL-1β
T2 sequence (looked up): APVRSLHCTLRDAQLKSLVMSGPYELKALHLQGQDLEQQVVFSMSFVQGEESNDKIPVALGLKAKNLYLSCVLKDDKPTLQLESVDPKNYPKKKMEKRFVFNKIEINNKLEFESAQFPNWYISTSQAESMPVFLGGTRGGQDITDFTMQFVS
Procedure: (§3) Affinities and specificities of both Hu007 and Mu007 were determined using BlAcore measurements. BIAcore™ is an automated biosensor system that measures molecular interactions. (Karlsson, et al. (1991) J. Immunol. Methods 145: 229-240). In these experiments antibody was immobilized at low density on a BIAcore™ chip. Ethyl-dimethylaminopropyl-carbodiimide (EDC) was used to couple reactive amino groups to purified goat anti-human IgG or goat anti-rabbit IgG to a flow cell of a carboxy-methyl (CM5) BIAcore™ sensor chip. Goat IgG was diluted in sodium acetate buffer, pH 4.0, and immobilized on a flow cell of a CM5 chip using EDC to yield 1000 response units. Unreacted sites were blocked with ehanolamine. A flow rate of 60 μL/min was used. Multiple binding/elution cycles were performed by injection a 100 μL solution of 15 μg/mL Mu007 or Hu007 followed by human IL-1β, mouse IL-1β, rat IL-1β, cynomolgus monkey IL-1β, porcine IL-1β, human IL-1 receptor antagonist, and human IL-1α at decreasing concentrations for each cycle (e.g., 1500, 750, 375, 188, 94, 47, 23.5, 12, and 0 picomolar). Elution was performed with glycine-HCl, pH 1.5. BIAevaluation™ was used to analyze the kinetic data. Table 2 depicts the affinities of Hu007 and Mu007 for human and cynomolgus IL-1β. […] Cynomolgus and porcine IL-1β had 100% binding to Hu007 relative to human IL-1β.

human IL-1β [6] = molecular target: T1, human IL-1β; experiment: as above
Procedure: as §3

human IL-1β [7] = molecular target: T1, human IL-1β; experiment: cell-based or functional assay; remark: listed apart in the source
human IL-1β [8] = molecular target: T1, human IL-1β; experiment: BIAcore, antibody captured on protein A CM5 chip, human IL-1β flowed
Procedure: (§4) Affinities and specificities of several Hu007 analogs were determined using BIAcore measurements. BIAcore™ is an automated biosensor system that measures molecular interactions. (Karlsson, et al. (1991) J. Immunol. Methods 145: 229-240). In these experiments antibody was immobilized at low density on a BIAcore™ chip. Ethyl-dimethylaminopropyl-carbodiimide (EDC) was used to couple reactive amino groups to protein A to a flow cell of a carboxy-methyl (CM5) BIAcore™ sensor chip. Protein A was diluted in sodium acetate buffer, pH 4.5, and immobilized on a flow cell of a CM5 chip using EDC to yield approximately 1000 response units. Unreacted sites were blocked with ethanolamine. A flow rate of 60 μl/min was used. Multiple binding/elution cycles were performed by injection of 10 μl of a 5 μg/mL Hu007 solution, and heavy chain CDR2 analogs N55D, N55S, N55Q, G56A, and G56V, followed by human IL-1β at decreasing concentrations for each cycle (e.g. 1500, 750, 375, 188, and […]). Elution was performed with glycine-HCl, pH 1.5. BIAevaluation™ was used to analyze the kinetic data. Table 5 depicts the affinities of Hu007 and the various Hu007 analogs for human IL-1β.

human IL-1β [9] = molecular target: T1, human IL-1β; experiment: BIAcore (Example 13)
Procedure: as §4

B1: mouse monoclonal antibody Mu007 (antibody, V domains shown)
VH: QVQLVQSGAEVKKPGASVKVSCKVSGYTFSRYWIEWVRQAPGKGLEWIGEILPGNGNINYNEKFKGKATITADTSTDTAYMELSSLRSEDTAVYYCSTIYYDYDQGFTYWGQGTLVTVSA
VL: DIKMTQSPSSMYASLGERVTITCKASQDIDRYLSWFQQKPGKSPKTLIYRVKRLVDGVPSRFSGSASGQDYSLTISSLQYEDMGIYYCLQYDEFPYTFGGGTKLEIK
IC50 (human IL-1β [1]): 0.39 µg/mL
IC50 (human IL-1β [2]): 0.4 µg/mL
IC50 (human IL-1β [3]): 0.4 µg/mL
IC50, inhibition of IL-1β stimulated proliferation of T1165.17 cells (3H-thymidine), average of three experiments (human IL-1β [4]): 220 pM
IC50 (human IL-1β [5]): 0.4 µg/mL
Kd (cynomolgus monkey IL-1β): 7.3 pM
Kd (human IL-1β [6]): 6.2 pM

B2: Hu007 analog G56A (antibody, human IgG1, kappa, V domains shown)
VH: B1 VH with G56A, A120S
VL: DIQMTQSPSSLSASVGDRVTITCKASQDIDRYLSWFQQKPGKAPKSLIYRVKRLVDGVPSRFSGSASGTDYTLTISSLQPEDFATYYCLQYDEFPYTFGQGTKLEIKR
notes: IgG1; Heavy chain of Hu007 with G56A, co-transfected with the WT Hu007 light chain
IC50, inhibition of human IL-1β stimulated proliferation (human IL-1β [7]): 184 Picomolar
Kd (human IL-1β [8]): 0.0336 nM

B3: Hu007 analog G56V (antibody, human IgG1, kappa, V domains shown)
VH: B1 VH with G56V, A120S
VL: B2 VL
notes: IgG1; Heavy chain of Hu007 with G56V, co-transfected with the WT Hu007 light chain
IC50, inhibition of human IL-1β stimulated proliferation (human IL-1β [7]): 395 Picomolar
Kd (human IL-1β [8]): 0.0732 nM

B4: Hu007 analog N55D (antibody, human IgG1, kappa, V domains shown)
VH: B1 VH with N55D, A120S
VL: B2 VL
notes: IgG1; Heavy chain of Hu007 with N55D, co-transfected with the WT Hu007 light chain; It mimics fully deamidated Hu007; also called heavy chain CDR2 analog N55D
IC50, inhibition of human IL-1β stimulated proliferation (human IL-1β [7]): 1100 Picomolar
fold loss of binding affinity against Hu007 (human IL-1β [9]): ~15 fold
Kd (human IL-1β [8]): 0.149 nM

B5: Hu007 analog N55Q (antibody, human IgG1, kappa, V domains shown)
VH: B1 VH with N55Q, A120S
VL: B2 VL
notes: IgG1; Heavy chain of Hu007 with N55Q, co-transfected with the WT Hu007 light chain
IC50, inhibition of human IL-1β stimulated proliferation (human IL-1β [7]): 2500 Picomolar
Kd (human IL-1β [8]): 0.257 nM

B6: Hu007 analog N55S (antibody, human IgG1, kappa, V domains shown)
VH: B1 VH with N55S, A120S
VL: B2 VL
notes: IgG1; also called heavy chain CDR2, N55S
IC50, inhibition of human IL-1β stimulated proliferation (human IL-1β [7]): 184 Picomolar
fold of the binding affinity of Hu007 (human IL-1β [9]): ≤ 3 fold
Kd (human IL-1β [8]): 0.0281 nM
